We go through two molecules from article PMC4338524 (Nature communications, 2014).

Data set [1] deals with T1, E. coli MinD, full-length, untagged (E. coli, UniProt P0AEZ3 1-270).
T1 sequence: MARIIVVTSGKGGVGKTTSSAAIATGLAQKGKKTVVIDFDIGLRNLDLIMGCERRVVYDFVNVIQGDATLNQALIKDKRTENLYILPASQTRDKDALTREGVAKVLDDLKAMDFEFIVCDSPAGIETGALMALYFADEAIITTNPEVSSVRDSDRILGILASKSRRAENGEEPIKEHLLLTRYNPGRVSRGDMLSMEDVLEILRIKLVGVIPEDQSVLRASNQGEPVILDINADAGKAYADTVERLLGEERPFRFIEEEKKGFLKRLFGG
Briefly: 90° angle light scattering.

The data set “co-sedimentation” deals with the molecule itself. The data set can be described thus: co-sedimentation.
The target of data set [2] is T2, E. coli MinCD copolymeric filaments (pre-formed) (E. coli, UniProt P18196;P0AEZ3).
T2 sequence 1: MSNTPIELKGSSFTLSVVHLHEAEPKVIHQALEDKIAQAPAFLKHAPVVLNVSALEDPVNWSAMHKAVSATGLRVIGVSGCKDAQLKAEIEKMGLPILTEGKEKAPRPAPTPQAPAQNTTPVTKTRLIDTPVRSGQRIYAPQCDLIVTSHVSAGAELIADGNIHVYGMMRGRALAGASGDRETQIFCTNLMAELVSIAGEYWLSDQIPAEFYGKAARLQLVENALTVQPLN
T2 sequence 2: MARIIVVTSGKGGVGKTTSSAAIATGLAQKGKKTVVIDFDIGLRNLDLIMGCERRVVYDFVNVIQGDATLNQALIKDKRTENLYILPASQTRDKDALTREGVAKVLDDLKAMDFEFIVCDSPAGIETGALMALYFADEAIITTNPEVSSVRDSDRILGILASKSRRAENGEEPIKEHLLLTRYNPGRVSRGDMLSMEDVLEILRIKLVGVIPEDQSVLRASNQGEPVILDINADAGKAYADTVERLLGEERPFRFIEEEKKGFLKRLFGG
The data set can be described thus: electron cryotomography of decorated liposomes.

B1: E. coli MinE, full length (natural protein)
chain: MALLDFFLSRKKNTANIAKERLQIIVAERRRSDAEPHYLPQLRKDILEVICKYVQIDPEMVTVQLEQKDGDISILELNVTLPEAEELK
On to B1, for which the binding result in data set [1] is given as “binds”.

B2: E. coli FtsZ (natural protein)
chain: MFEPMELTNDAVIKVIGVGGGGGNAVEHMVRERIEGVEFFAVNTDAQALRKTAVGQTIQIGSGITKGLGAGANPEVGRNAADEDRDALRAALEGADMVFIAAGMGGGTGTGAAPVVAEVAKDLGILTVAVVTKPFNFEGKKRMAFAEQGITELSKHVDSLITIPNDKLLKVLGRGISLLDAFGAANDVLKGAVQGIAELITRPGLMNVDFADVRTVMSEMGYAMMGSGVASGEDRAEEAAEMAISSPLLEDIDLSGARGVLVNITAGFDLRLDEFETVGNTIRAFASDNATVVIGTSLDPDMNDELRVTVVATGIGMDKRPEITLVTNKQVQQPVMDRYQQHGMAPLTQEQKPVAKVVNDNAPQTAKEPDYLDIPAFLRKQAD
As for B2, the binding result (in the data set “co-sedimentation”; in data set [2]) was “binds” throughout.
